± gives the uncertainty stated by the source.
Assay: protein stability index of a GFP-peptide fusion (yeast GPS) (PSI 1-4); higher = more stable; sorted into four equal gates, so the index is relative within each strain
Procedure, shortened: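 Yeast carrying a pooled library were grown to mid-log phase in leucine-free medium. Each library plasmid expresses Cherry and has a tiled 17-residue yeast protein peptide fused downstream of GFP. Cells were sorted into four equal gates by GFP/Cherry ratio, and plasmids from each gate were PCR-amplified, Illumina-sequenced and assigned to strains by barcode. Summing, across gates, the read frequency times the gate number gave each peptide's protein stability index.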

Sequence | protein stability index (doa10∆) | protein stability index (pdr5∆) | protein stability index (san1∆) | protein stability index (ubr1∆)
PTLGERLDNLQDIKKAK [DSN1] | 1.54 ± 0.082 | 1.25 ± 0.041 | 2.71 ± 0.085 | 2.86 ± 0.064
LKRNRIRNARSIRAEAV [POP1] | 1.71 ± 0.15 | 2.44 ± 0.1 | – | 2.59 ± 0.13
HLSSKTGLHFGRLSLRS [QCR10] | 3.24 ± 0.2 | 3.06 ± 0.11 | 3.06 ± 0.11 | 3.14 ± 0.12
SIPPATIETFNEAALVV [RPB5] | 3.09 ± 0.18 | 2.46 ± 0.15 | 2.02 ± 0.11 | 3.15 ± 0.13
QKNMNDLLRSQLTSLEK [YIL149C/MLP2] | 2.89 ± 0.073 | 2.17 ± 0.056 | 1.96 ± 0.075 | 2.35 ± 0.05
ETTIDDLPISSTDNEAI [SMC1] | 2.67 ± 0.069 | 2.7 ± 0.087 | 2.66 ± 0.053 | 2.97 ± 0.058
WSSLLNEGLVEYIDAEE [RPB2] | 2.84 ± 0.21 | 3.44 ± 0.17 | – | 2.97 ± 0.16
RRRRLKKVEEEENAATL [RPB4] | 3.17 ± 0.2 | 3.75 ± 0.26 | – | –
LQELIVNGPNVHPGANY [RPO31] | 2.83 ± 0.071 | 2.99 ± 0.092 | 2.99 ± 0.072 | 2.45 ± 0.047
TQAIADIVQYHLELYTS [PRE3] | 2.07 ± 0.064 | 1.72 ± 0.057 | 1.77 ± 0.069 | 2.01 ± 0.042
VTDSSLLKLLTRLVQLR [GRR1] | 2.4 ± 0.054 | 1.7 ± 0.056 | 2.41 ± 0.074 | 1.84 ± 0.045
VYVTGGRNLGRIGTIVH [RPS4A] | 3.02 ± 0.21 | 2.8 ± 0.18 | 3.18 ± 0.084 | 3.4 ± 0.13
TGKERSKKRKLNSLTNL [SNM1] | 2.41 ± 0.11 | 3.04 ± 0.093 | 2.89 ± 0.075 | 2.67 ± 0.13
ARVILYLKNVLFAFNGV [SIN4] | 2.38 ± 0.064 | 1.57 ± 0.06 | 1.42 ± 0.077 | 1.38 ± 0.042
VIDGKLPFMQNAGPNSN [YDL088C/ASM4] | 2.93 ± 0.049 | 3.04 ± 0.054 | 2.91 ± 0.037 | 2.92 ± 0.04
KNTSSMDFLNSMENTPK [GAL11] | 1.83 ± 0.059 | 1.67 ± 0.06 | 2.33 ± 0.12 | 3.02 ± 0.047
SEMLAKYSDILLKKATK [CDC53] | 2.62 ± 0.078 | 2.44 ± 0.12 | – | 2.47 ± 0.17
IHLYMLTFHTLKKANII [YLR018C/POM34] | 1.31 ± 0.051 | 1.27 ± 0.06 | 1.21 ± 0.12 | 1.09 ± 0.042
FDNVASVFMPLIFIACN [ECM29] | 2.9 ± 0.048 | 2.72 ± 0.038 | 2.57 ± 0.045 | 2.71 ± 0.032
RVRAESLHSNSFSLTVS [YJL039C/NUP192] | 1.74 ± 0.066 | 1.76 ± 0.072 | 1.43 ± 0.17 | 1.75 ± 0.064
HGIVFQHPFPLAHSQHR [SSN2] | 2.14 ± 0.066 | 2.23 ± 0.068 | 2.01 ± 0.085 | 2.38 ± 0.078
EKRIQYAKDILQKEFLP [RPB2] | 2.06 ± 0.055 | 1.85 ± 0.052 | 2.06 ± 0.091 | 2.08 ± 0.09
SVRIDGRKVLQKVQGES [SIR4] | 2.75 ± 0.089 | 3.11 ± 0.067 | 2.98 ± 0.066 | 2.88 ± 0.064
DELETKAEKKVELHGKR [PRP8] | 2.84 ± 0.19 | 2.95 ± 0.17 | 3.4 ± 0.26 | 2.63 ± 0.18
RSKFLSTVAKFLARVIK [IRR1] | 3.04 ± 0.07 | 2 ± 0.07 | 2.24 ± 0.11 | 2.2 ± 0.047
VLLATWNLEKWREIIEK [IRR1] | – | 3.14 ± 0.16 | 2.92 ± 0.1 | –
EDYPMSSEIKIYYNELQ [SIR4] | 1.95 ± 0.13 | 3.16 ± 0.13 | 2.53 ± 0.25 | 3.02 ± 0.079

Sequence | protein stability index (doa10∆) | protein stability index (pdr5∆) | protein stability index (san1∆) | protein stability index (ubr1∆)
LTTAREHHSSVKYASPN [FAS2] | 3.02 ± 0.065 | 3.11 ± 0.057 | 3.04 ± 0.041 | 3.06 ± 0.04
NYDTCGGESAYFFQLQI [RPC11] | 2.72 ± 0.2 | 2.75 ± 0.15 | 2.04 ± 0.14 | 2.94 ± 0.14
PSDVNIDVMKSQIIPLM [SNU114] | 2.15 ± 0.1 | 1.82 ± 0.053 | 2.65 ± 0.07 | 1.82 ± 0.058
HLGLDDPQDVFNYNIFM [SIR2] | 2.99 ± 0.087 | 3.2 ± 0.14 | 3.24 ± 0.13 | 3.26 ± 0.078
CNSIINKLGALKTNFET [RPB11] | 2.57 ± 0.089 | 2.42 ± 0.099 | 2.68 ± 0.088 | 3.05 ± 0.17
SLEDPQVRKKQIETINF [YDL116W/NUP84] | 1.72 ± 0.12 | 1.82 ± 0.088 | 2.19 ± 0.11 | 2.23 ± 0.19
ASMLGLFVFTEGWPKFQ [QCR10] | 1.79 ± 0.1 | 1.96 ± 0.099 | – | 2.82 ± 0.2
RKANREEKLKANKEKKK [RPL24A] | 2.88 ± 0.074 | 1.98 ± 0.066 | 2.15 ± 0.087 | 2.31 ± 0.053
RGTTAVLKESIVNICDI [PUP1] | – | 3.2 ± 0.22 | – | 1.79 ± 0.27
QKGITSYAVSPYAQKPL [QCR8] | 2.92 ± 0.13 | 3.05 ± 0.14 | 2.92 ± 0.063 | 3.13 ± 0.089
TDWDPQFNAITGLNGSG [SMC2] | 2.94 ± 0.19 | – | 2.3 ± 0.19 | –
AITISNSIDINYKGLPK [SMC1] | 2.48 ± 0.063 | 2.83 ± 0.054 | 2.54 ± 0.073 | 2.98 ± 0.039
KVKHDSQPFIKFLNFRP [SSN2] | 2.88 ± 0.06 | 2.6 ± 0.063 | 2.49 ± 0.079 | 2.63 ± 0.041
EFLPLSLHILMIFWNDI [SRB8] | 1.36 ± 0.037 | 1.34 ± 0.04 | 1.35 ± 0.062 | 1.89 ± 0.036
EDFPIDTWANGETIKSN [SEM1] | 3.55 ± 0.14 | 3.61 ± 0.19 | 3.13 ± 0.2 | 3.15 ± 0.15
QSSSSTRSHEYGRKSFR [REC8] | 2.83 ± 0.11 | 2.92 ± 0.099 | 2.84 ± 0.12 | 3.2 ± 0.13
YPLWVMAKQLIRLANES [CSN12] | 2.08 ± 0.07 | 1.41 ± 0.047 | 1.34 ± 0.17 | 1.4 ± 0.059
TQDESEIKDAETSCDNY [SMC4] | 2.26 ± 0.083 | 2.62 ± 0.073 | 3.4 ± 0.056 | 2.98 ± 0.053
LVETCLNDLVESSFIEI [BRR2] | 3.03 ± 0.053 | 2.75 ± 0.063 | 2.69 ± 0.085 | 2.46 ± 0.054
IELSVPDRQSMDSRVAH [SRB5] | 3.11 ± 0.17 | 2.96 ± 0.14 | 3.17 ± 0.13 | 3.16 ± 0.089
FSSNERYFFWLQEKNSG [RPN13] | 1.27 ± 0.048 | 1.65 ± 0.072 | 2.18 ± 0.076 | 2.25 ± 0.055
VTFIFGELKRGNESVKP [MED11] | 3.43 ± 0.17 | 3.12 ± 0.077 | 2.97 ± 0.1 | 2.98 ± 0.15
MPGSQINSPMPQQAQMQ [SNF2] | 2.9 ± 0.081 | 2.87 ± 0.096 | 3.05 ± 0.07 | 2.95 ± 0.097
KLSIAEERDRRRAQQGL [RPS4A] | 2.11 ± 0.06 | 2.19 ± 0.069 | 2.49 ± 0.095 | 1.6 ± 0.063
FISNLPNVSDKYYLEES [NUT1] | 2.16 ± 0.098 | 1.49 ± 0.094 | – | 1.27 ± 0.076
LSSDDLLGKESFKKIIK [YCS4] | 3.25 ± 0.19 | 3.08 ± 0.22 | 3.39 ± 0.063 | 3.57 ± 0.1

From the supplement of paper PMC9732359
